Square brackets hold non-standard residues; d marks the D form. Ends that are not written are not given here. Aib = CC(C)(N)C(=O)O Some results are limits rather than exact numbers.

The target of experiment [1] is T1, GLP-1R (Homo sapiens, UniProt P43220). The experiment can be described thus: β-arrestin-2 recruitment to GLP-1R measured by BRET. It counts as cell-based. As to conditions: for Emax: HEK-293T, read-out: β-arrestin-2 Max response (% GLP-1). For orientation: Recruitment of arrestin is a read-out of receptor activation apart from second messengers.
For experiment [2] the following is noted: overweight and obese individuals, 24-week Phase 2 clinical trial; cited from earlier work.
Experiment [3] addresses glucagon-like peptide-1 receptor (UniProt P43220).
For a further experiment, the target named is GLP-1R-Rluc8 (UniProt P43220).
The target in experiment [4] is T1, GLP-1R. The note with it: vs GLP-1; stated as an observation, no reference given; cited from earlier work.
The target in a further experiment is glucagon receptor (UniProt P47871).
Experiment [5] has as its target glucose-dependent insulinotropic polypeptide receptor (UniProt P48546).

T1 sequence (P43220 24-463, species assumed): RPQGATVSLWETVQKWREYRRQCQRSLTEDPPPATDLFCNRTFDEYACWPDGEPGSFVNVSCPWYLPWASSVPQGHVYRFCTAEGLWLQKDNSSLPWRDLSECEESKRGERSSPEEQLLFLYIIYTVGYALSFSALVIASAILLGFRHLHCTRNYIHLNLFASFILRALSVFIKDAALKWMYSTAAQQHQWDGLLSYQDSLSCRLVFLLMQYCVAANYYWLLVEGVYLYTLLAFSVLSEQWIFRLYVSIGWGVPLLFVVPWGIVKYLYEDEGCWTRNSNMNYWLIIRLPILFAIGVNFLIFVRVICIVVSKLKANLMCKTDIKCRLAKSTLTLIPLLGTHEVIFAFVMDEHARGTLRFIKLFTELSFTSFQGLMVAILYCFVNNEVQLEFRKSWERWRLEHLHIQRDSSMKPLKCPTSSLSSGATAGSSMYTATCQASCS
Sequence of glucagon-like peptide-1 receptor (P43220 24-463): as the sequence (P43220 24-463, species assumed) above
Sequence of GLP-1R-Rluc8 (P43220 24-463): as the sequence (P43220 24-463, species assumed) above
Sequence of glucose-dependent insulinotropic polypeptide receptor (P48546 22-466): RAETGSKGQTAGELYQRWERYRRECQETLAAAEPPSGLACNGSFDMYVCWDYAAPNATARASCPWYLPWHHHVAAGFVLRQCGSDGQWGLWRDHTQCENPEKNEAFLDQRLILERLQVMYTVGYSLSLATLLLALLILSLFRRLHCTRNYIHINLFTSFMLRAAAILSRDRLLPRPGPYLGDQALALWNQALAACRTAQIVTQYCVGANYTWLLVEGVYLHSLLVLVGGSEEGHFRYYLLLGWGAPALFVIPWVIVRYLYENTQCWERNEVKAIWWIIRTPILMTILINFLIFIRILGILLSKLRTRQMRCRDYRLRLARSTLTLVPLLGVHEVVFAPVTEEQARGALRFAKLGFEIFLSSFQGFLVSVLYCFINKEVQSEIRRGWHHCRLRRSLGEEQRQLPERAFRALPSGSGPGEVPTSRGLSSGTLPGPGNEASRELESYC

`CC[C@H](C)[C@H](NC(=O)[C@H](Cc1ccccc1)NC(=O)[C@H](C)NC(=O)C(C)(C)NC(=O)[C@H](CCC(N)=O)NC(=O)[C@H](C)NC(=O)[C@H](CCCCNC(=O)COCCOCCNC(=O)CC[C@H](NC(=O)CCCCCCCCCCCCCCCCCCC(=O)O)C(=O)O)NC(=O)[C@H](CCCCN)NC(=O)[C@H](CC(=O)O)NC(=O)[C@H](CC(C)C)NC(=O)[C@](C)(CC(C)C)NC(=O)[C@@H](NC(=O)[C@H](CO)NC(=O)[C@H](Cc1ccc(O)cc1)NC(=O)[C@H](CC(=O)O)NC(=O)[C@H](CO)NC(=O)[C@@H](NC(=O)[C@H](Cc1ccccc1)NC(=O)[C@@H](NC(=O)CNC(=O)[C@H](CCC(N)=O)NC(=O)C(C)(C)NC(=O)[C@@H](N)Cc1ccc(O)cc1)[C@@H](C)O)[C@@H](C)O)[C@@H](C)CC)C(=O)N[C@@H](CCC(=O)O)C(=O)N[C@@H](Cc1ccc(O)cc1)C(=O)N[C@@H](CC(C)C)C(=O)N[C@@H](CC(C)C)C(=O)N[C@@H](CCC(=O)O)C(=O)NCC(=O)NCC(=O)N1CCC[C@H]1C(=O)N[C@@H](CO)C(=O)N[C@@H](CO)C(=O)NCC(=O)N[C@@H](C)C(=O)N1CCC[C@H]1C(=O)N1CCC[C@H]1C(=O)N1CCC[C@H]1C(=O)N[C@@H](CO)C(N)=O` [Retatrutide]: on GLP-1R [1], the Emax is 58 ± 5%. Further, the maximal weight loss in experiment [2] was 24%.

The compound GEP44 (peptide) registered an EC50, cAMP-dependent CRE6x-luciferase reporter gene assay, HEK293 cells in experiment [3] of 0.64 pM. In the experiment with GLP-1R-Rluc8, the pEC50 of β-arrestin-2 recruitment to GLP-1R, BRET, HEK293T cells worked out at 7.67.

Consider GLP-1(9–36 amide), for which, at GLP-1R [4], the “loss in receptor potency of the DPP4-truncated form” value is recorded as > 1,000 fold.

For the compound “H[Aib]QGTFTSDYSKYLDERAAQDFVQWLLDGGPSLRHYLNLVTRQRY-NH2 (C-terminus assumed) [TC0]”, on GLP-1R [1], a half-maximal response (EC50) required 21400 pM and the Emax worked out at 90 ± 5%.

Consider Retatrutide (peptide), for which the results for the EC50, cAMP-dependent CRE6x-luciferase reporter gene assay, HEK293 cells (with glucagon receptor; in experiment [3]; in experiment [5]) were 8.2 pM, 11 pM and 2.2 pM, respectively. This compound returned a pEC50 of β-arrestin-2 recruitment to GLP-1R, BRET, HEK293T cells with GLP-1R-Rluc8 of 7.62.

(Values after PMC12560177 (Journal of the American Chemical Society, 2025).)
